Measured values reported in patent US20210292426A1.

Legend:
[1] = molecular target: human CD40 expressed on cells (human) (UniProt P25942); assay: flow cytometry, Raji cells
[2] = molecular target: human CD40 expressed on cells (human) (UniProt P25942); assay: flow cytometry, primary human B cells
[3] = molecular target: human CD40 extracellular domain with C-terminal His-AviTag (human) (UniProt P25942); assay: SPR (Biacore), antibody captured, CD40 ECD analyte

EC50 [1]: 0.09 µg/mL
EC50 [2]: 0.333 nM
Kd [3]: 4.6 nM
koff [3]: 0.00781 s⁻¹
kon [3]: 1.69e+06 M⁻¹ s⁻¹
B1: P1AD4470 (CD40 IgG1, control) (antibody, from a related filing, V domains shown)
VH: EVQLVESGGGLVQPGGSLRLSCAASGYSFTGYYIHWVRQAPGKGLEWVARVIPNAGGTSYNQKFKGRFTLSVDNSKNTAYLQMNSLRAEDTAVYYCAREGIYWWGQGTLVTVSS
VL: DIQMTQSPSSLSASVGDRVTITCRSSQSLVHSNGNTFLHWYQQKPGKAPKLLIYTVSNRFSGVPSRFSGSGSGTDFTLTISSLQPEDFATYFCSQTTHVPWTFGQGTKVEIKR
